Reference: patent publication US20200377590A1 (Hoffmann-La Roche, published 2020)
Numbering of substitutions follows the chain as printed.

T1: CD81 (UniProt P60033 1-236, limits assumed)
T1 construct: whole, on cells; also called CD81 receptor
T1 sequence (looked up): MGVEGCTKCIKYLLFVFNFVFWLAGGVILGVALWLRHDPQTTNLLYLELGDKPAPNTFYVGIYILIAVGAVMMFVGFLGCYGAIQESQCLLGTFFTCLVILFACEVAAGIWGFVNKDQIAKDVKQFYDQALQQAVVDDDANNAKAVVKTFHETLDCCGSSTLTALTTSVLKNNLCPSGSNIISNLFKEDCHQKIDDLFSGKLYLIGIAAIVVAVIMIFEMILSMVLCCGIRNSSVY

B1: CD81K04 HC GG-02-hVH_1_69 / LC GG-02-hVK_4_1 (antibody, V domains shown)
VH: QVQLVQSGAEVKKPGSSVKVSCKASGYTFSSSWMNWVRQAPGQGLEWMGRIYSGDGDAIYNQKFQGRVTITADESTSTAYMELSSLRSEDTAVYYCAREGKTGDLLLRSWGQGTLVTVSS
VL: DIVMTQSPDSLAVSLGERATINCKSSKSVSTSIYSYMHWYQQKPGQPPKLLIYYASYRESGVPDRFSGSGSGTDFTLTISSLQAEDVAVYYCQHSREFPFTFGQGTKLEIK
notes: human constant region
B2: CD81K04 HC JA_GG-14-hVH_1_3 / LC JA_GG-08-hVK_4_1 (antibody, V domains shown)
VH: B1 VH with S16A, Q62G, Q65K, V68A, E74T, T76A
VL: B1 VL with Y53K, R58L, Q93E
notes: human constant region
B3: CD81K04 HC GG-02-hVH_1_69 / LC JA_GG-09-hVK_4_1 (antibody, V domains shown)
VH: B1 VH
VL: B1 VL with Y53K, Y57T, Q93E
notes: human constant region
B4: CD81K04 HC GG-03-hVH_1_69 / LC GG-03-hVK_4_1 (antibody, V domains shown)
VH: B1 VH with N61A
VL: B1 VL with M37L, H38A
notes: human constant region
B5: CD81K04 HC GG-03-hVH_1_69 / LC JA_GG-10-hVK_4_1 (antibody, V domains shown)
VH: B1 VH with N61A
VL: B1 VL with K24R, S25A, Y53K, R58L, Q93E
notes: human constant region
B6: CD81K04 HC GG-02-hVH_1_69 / LC GG-03-hVK_4_1 (antibody, V domains shown)
VH: B1 VH
VL: B1 VL with M37L, H38A
notes: human constant region
B7: CD81K04 HC GG-03-hVH_1_69 / LC JA_GG-09-hVK_4_1 (antibody, V domains shown)
VH: B1 VH with N61A
VL: B1 VL with Y53K, Y57T, Q93E
notes: human constant region
B8: CD81K04 HC JA_GG-13-hVH_1_69 / LC GG-02-hVK_4_1 (antibody, V domains shown)
VH: B1 VH with Y27G, N61A
VL: B1 VL
notes: human constant region
B9: CD81K04 HC GG-05-hVH_1_18 / LC GG-04-hVK_4_1 (antibody, V domains shown)
VH: B1 VH with S16A, N61A, F64L, I70M, A72T, E74T, S84R, E89D
VL: B1 VL with M37L, H38A, Y57T, F100Y
notes: human constant region
B10: CD81K04 HC JA_GG-14-hVH_1_3 / LC GG-02-hVK_4_1 (antibody, V domains shown)
VH: B1 VH with S16A, Q62G, Q65K, V68A, E74T, T76A
VL: B1 VL
notes: human constant region
B11: CD81K04 HC JA_GG-14-hVH_1_69-GA / LC JA_GG-09-hVK_4_1 (antibody, V domains shown)
VH: B1 VH with Q62G, Q65K, R67K, V68A
VL: B1 VL with Y53K, Y57T, Q93E
notes: human constant region
B12: CD81K04 HC GG-05-hVH_1_18 / LC JA_GG-08-hVK_4_1 (antibody, V domains shown)
VH: B1 VH with S16A, N61A, F64L, I70M, A72T, E74T, S84R, E89D
VL: B1 VL with Y53K, R58L, Q93E
notes: human constant region
B13: CD81K04 HC GG-03-hVH_1_69 / LC JA_GG-08-hVK_4_1 (antibody, V domains shown)
VH: B1 VH with N61A
VL: B1 VL with Y53K, R58L, Q93E
notes: human constant region
B14: CD81K04 HC JA_GG-14-hVH_1_69-GA / LC GG-02-hVK_4_1 (antibody, V domains shown)
VH: B1 VH with Q62G, Q65K, R67K, V68A
VL: B1 VL
notes: human constant region
B15: CD81K04 HC GG-03-hVH_1_69 / LC GG-04-hVK_4_1 (antibody, V domains shown)
VH: B1 VH with N61A
VL: B1 VL with M37L, H38A, Y57T, F100Y
notes: human constant region
B16: CD81K04 HC GG-02-hVH_1_69 / LC JA_GG-08-hVK_4_1 (antibody, V domains shown)
VH: B1 VH
VL: B1 VL with Y53K, R58L, Q93E
notes: human constant region
B17: CD81K04 HC GG-02-hVH_1_69 / LC JA_GG-10-hVK_4_1 (antibody, V domains shown)
VH: B1 VH
VL: B1 VL with K24R, S25A, Y53K, R58L, Q93E
notes: human constant region
B18: CD81K04 HC JA_GG-13-hVH_1_69 / LC GG-03-hVK_4_1 (antibody, V domains shown)
VH: B1 VH with Y27G, N61A
VL: B1 VL with M37L, H38A
notes: human constant region
B19: CD81K04 HC JA_GG-14-hVH_1_69 / LC JA_GG-10-hVK_4_1 (antibody, V domains shown)
VH: B1 VH with Q62G, Q65K, R67K, V68A
VL: B1 VL with K24R, S25A, Y53K, R58L, Q93E
notes: human constant region
B20: CD81K04 HC GG-05-hVH_1_18 / LC GG-02-hVK_4_1 (antibody, V domains shown)
VH: B1 VH with S16A, N61A, F64L, I70M, A72T, E74T, S84R, E89D
VL: B1 VL
notes: human constant region
B21: CD81K04 HC GG-04-hVH_1_69 / LC JA_GG-08-hVK_4_1 (antibody, V domains shown)
VH: B1 VH with V68A
VL: B1 VL with Y53K, R58L, Q93E
notes: human constant region
B22: CD81K04 HC JA_GG-14-hVH_1_69-GA / LC GG-03-hVK_4_1 (antibody, V domains shown)
VH: B1 VH with Q62G, Q65K, R67K, V68A
VL: B1 VL with M37L, H38A
notes: human constant region
B23: CD81K04 HC JA_GG-14-hVH_1_3 / LC GG-03-hVK_4_1 (antibody, V domains shown)
VH: B1 VH with S16A, Q62G, Q65K, V68A, E74T, T76A
VL: B1 VL with M37L, H38A
notes: human constant region
B24: CD81K04 HC JA_GG-15-hVH_1_3 / LC GG-03-hVK_4_1 (antibody, V domains shown)
VH: B1 VH with S16A, G44R, Q62G, Q65K, E74T, T76A
VL: B1 VL with M37L, H38A
notes: human constant region
B25: CD81K04 HC GG-04-hVH_1_69 / LC GG-04-hVK_4_1 (antibody, V domains shown)
VH: B1 VH with V68A
VL: B1 VL with M37L, H38A, Y57T, F100Y
notes: human constant region
B26: CD81K04 HC JA_GG-13-hVH_1_69 / LC JA_GG-08-hVK_4_1 (antibody, V domains shown)
VH: B1 VH with Y27G, N61A
VL: B1 VL with Y53K, R58L, Q93E
notes: human constant region
B27: CD81K04 HC GG-05-hVH_1_18 / LC JA_GG-09-hVK_4_1 (antibody, V domains shown)
VH: B1 VH with S16A, N61A, F64L, I70M, A72T, E74T, S84R, E89D
VL: B1 VL with Y53K, Y57T, Q93E
notes: human constant region
B28: CD81K04 HC JA_GG-13-hVH_1_69 / LC GG-04-hVK_4_1 (antibody, V domains shown)
VH: B1 VH with Y27G, N61A
VL: B1 VL with M37L, H38A, Y57T, F100Y
notes: human constant region
B29: CD81K04 HC JA_GG-14-hVH_1_3 / LC GG-04-hVK_4_1 (antibody, V domains shown)
VH: B1 VH with S16A, Q62G, Q65K, V68A, E74T, T76A
VL: B1 VL with M37L, H38A, Y57T, F100Y
notes: human constant region
B30: CD81K04 HC JA_GG-14-hVH_1_69 / LC GG-02-hVK_4_1 (antibody, V domains shown)
VH: B1 VH with Q62G, Q65K, R67K, V68A
VL: B1 VL
notes: human constant region
B31: CD81K04 HC GG-04-hVH_1_69 / LC GG-02-hVK_4_1 (antibody, V domains shown)
VH: B1 VH with V68A
VL: B1 VL
notes: human constant region
B32: CD81K04 HC JA_GG-14-hVH_1_3 / LC JA_GG-10-hVK_4_1 (antibody, V domains shown)
VH: B1 VH with S16A, Q62G, Q65K, V68A, E74T, T76A
VL: B1 VL with K24R, S25A, Y53K, R58L, Q93E
notes: human constant region
B33: CD81K04 HC JA_GG-14-hVH_1_69 / LC GG-03-hVK_4_1 (antibody, V domains shown)
VH: B1 VH with Q62G, Q65K, R67K, V68A
VL: B1 VL with M37L, H38A
notes: human constant region
B34: CD81K04 HC GG-04-hVH_1_69 / LC GG-03-hVK_4_1 (antibody, V domains shown)
VH: B1 VH with V68A
VL: B1 VL with M37L, H38A
notes: human constant region
B35: CD81K04 HC GG-03-hVH_1_69 / LC GG-02-hVK_4_1 (antibody, V domains shown)
VH: B1 VH with N61A
VL: B1 VL
notes: human constant region
B36: CD81K04 HC JA_GG-14-hVH_1_69 / LC JA_GG-09-hVK_4_1 (antibody, V domains shown)
VH: B1 VH with Q62G, Q65K, R67K, V68A
VL: B1 VL with Y53K, Y57T, Q93E
notes: human constant region
B37: CD81K04 HC GG-02-hVH_1_69 / LC GG-04-hVK_4_1 (antibody, V domains shown)
VH: B1 VH
VL: B1 VL with M37L, H38A, Y57T, F100Y
notes: human constant region
B38: CD81K04 HC JA_GG-15-hVH_1_3 / LC GG-02-hVK_4_1 (antibody, V domains shown)
VH: B1 VH with S16A, G44R, Q62G, Q65K, E74T, T76A
VL: B1 VL
notes: human constant region
B39: CD81K04 HC JA_GG-14-hVH_1_3 / LC JA_GG-09-hVK_4_1 (antibody, V domains shown)
VH: B1 VH with S16A, Q62G, Q65K, V68A, E74T, T76A
VL: B1 VL with Y53K, Y57T, Q93E
notes: human constant region
B40: CD81K04 HC GG-04-hVH_1_69 / LC JA_GG-09-hVK_4_1 (antibody, V domains shown)
VH: B1 VH with V68A
VL: B1 VL with Y53K, Y57T, Q93E
notes: human constant region
B41: CD81K04 HC JA_GG-14-hVH_1_69-GA / LC JA_GG-10-hVK_4_1 (antibody, V domains shown)
VH: B1 VH with Q62G, Q65K, R67K, V68A
VL: B1 VL with K24R, S25A, Y53K, R58L, Q93E
notes: human constant region
B42: CD81K04 HC GG-04-hVH_1_69 / LC JA_GG-10-hVK_4_1 (antibody, V domains shown)
VH: B1 VH with V68A
VL: B1 VL with K24R, S25A, Y53K, R58L, Q93E
notes: human constant region
B43: CD81K04 HC JA_GG-13-hVH_1_69 / LC JA_GG-09-hVK_4_1 (antibody, V domains shown)
VH: B1 VH with Y27G, N61A
VL: B1 VL with Y53K, Y57T, Q93E
notes: human constant region
B44: CD81K04 HC JA_GG-13-hVH_1_69 / LC JA_GG-10-hVK_4_1 (antibody, V domains shown)
VH: B1 VH with Y27G, N61A
VL: B1 VL with K24R, S25A, Y53K, R58L, Q93E
notes: human constant region
B45: CD81K04 HC JA_GG-14-hVH_1_69-GA / LC JA_GG-08-hVK_4_1 (antibody, V domains shown)
VH: B1 VH with Q62G, Q65K, R67K, V68A
VL: B1 VL with Y53K, R58L, Q93E
notes: human constant region
B46: CD81K04 HC JA_GG-14-hVH_1_69 / LC JA_GG-08-hVK_4_1 (antibody, V domains shown)
VH: B1 VH with Q62G, Q65K, R67K, V68A
VL: B1 VL with Y53K, R58L, Q93E
notes: human constant region

These binders were tested against T1, CD81 (assay: cell ELISA;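 note: antibody binding to HuH7 cells expressing CD81 versus a CD81-negative HuH7 control line, bound antibody detected by secondary reagent, absorbance at 450 nm with 620 nm reference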).
Method: For the binding cell ELISA assay, HuH7-Rluc-H3 (positive cell line expressing CD81) and HuH7-Rluc-L1 (negative control cell line) were propagated in F-12 DMEM medium with 10% FCS at 37° C. and 5% CO₂. On day 1, the cells were trypsinized at approximately 90% confluence and resuspended at 4×10⁵ cells/mL. […] On day 2, the antibody samples to be tested were prepared in a separate polypropylene round bottom plate with a twofold desired concentration with a final volume of 120 μl. All of the assay samples were diluted in cell culture medium. […] After fixation, each well was washed 3 times with 200 μL PBS/0.05% Tween. The secondary incubation step for detection of bound anti-CD81 antibodies was performed for 2 h at room temperature on a reciprocal shaker. […] Each well was washed three times with 200 μL PBS/0.05% Tween to remove unbound antibodies. […] The absorbance was read using the ELISA Tecan reader at 450 nm with 620 nm reference wavelength.

| ELISA data | Binder |
| --- | --- |
| 0.22 | B1 |
| 0.953 | B2 |
| 0.783 | B3 |
| 0.165 | B4 |
| 0.691 | B5 |
| 0.142 | B6 |
| 0.832 | B7 |
| 0.172 | B8 |
| 0.187 | B9 |
| 0.575 | B10 |
| 0.888 | B11 |
| 0.881 | B12 |
| 0.815 | B13 |
| 0.211 | B14 |
| 0.07 | B15 |
| 0.792 | B16 |
| 0.643 | B17 |
| 0.115 | B18 |
| 0.77 | B19 |
| 0.664 | B20 |
| 0.773 | B21 |
| 0.243 | B22 |
| 0.518 | B23 |

| ELISA data | Binder |
| --- | --- |
| 0.545 | B24 |
| 0.141 | B25 |
| 0.743 | B26 |
| 0.889 | B27 |
| 0.073 | B28 |
| 0.177 | B29 |
| 0.235 | B30 |
| 0.27 | B31 |
| 0.882 | B32 |
| 0.26 | B33 |
| 0.162 | B34 |
| 0.44 | B35 |
| 0.913 | B36 |
| 0.075 | B37 |
| 0.602 | B38 |
| 0.975 | B39 |
| 0.918 | B40 |
| 0.733 | B41 |
| 0.762 | B42 |
| 0.776 | B43 |
| 0.613 | B44 |
| 0.836 | B45 |
| 0.835 | B46 |
